What was measured:
[1] = target: Helios (Mus musculus) (UniProt P81183); assay: cell_activity; settings: NIH3T3 reporter; requires Ikaros sites
[2] = target: Ikaros (UniProt Q03267); assay: cell_activity; settings: NIH3T3 reporter
Sequence of Ikaros (Q03267 other isoform, or with tags, fused parts or gaps): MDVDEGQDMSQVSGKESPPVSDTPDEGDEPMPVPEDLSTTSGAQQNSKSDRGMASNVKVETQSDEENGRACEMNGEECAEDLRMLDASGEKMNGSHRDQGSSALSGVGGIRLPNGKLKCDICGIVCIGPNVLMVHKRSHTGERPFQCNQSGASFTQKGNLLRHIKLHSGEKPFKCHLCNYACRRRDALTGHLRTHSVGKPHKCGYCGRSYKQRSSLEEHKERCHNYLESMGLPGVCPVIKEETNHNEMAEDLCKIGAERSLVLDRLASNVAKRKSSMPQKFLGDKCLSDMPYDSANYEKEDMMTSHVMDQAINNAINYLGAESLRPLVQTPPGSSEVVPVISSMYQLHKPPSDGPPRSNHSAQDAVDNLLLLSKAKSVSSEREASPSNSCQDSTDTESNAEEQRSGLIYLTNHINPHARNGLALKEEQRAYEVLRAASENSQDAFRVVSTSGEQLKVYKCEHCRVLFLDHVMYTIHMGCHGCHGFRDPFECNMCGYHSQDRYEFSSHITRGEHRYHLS

Sequence of Helios (Mus musculus) (P81183 other isoform, or with tags, fused parts or gaps): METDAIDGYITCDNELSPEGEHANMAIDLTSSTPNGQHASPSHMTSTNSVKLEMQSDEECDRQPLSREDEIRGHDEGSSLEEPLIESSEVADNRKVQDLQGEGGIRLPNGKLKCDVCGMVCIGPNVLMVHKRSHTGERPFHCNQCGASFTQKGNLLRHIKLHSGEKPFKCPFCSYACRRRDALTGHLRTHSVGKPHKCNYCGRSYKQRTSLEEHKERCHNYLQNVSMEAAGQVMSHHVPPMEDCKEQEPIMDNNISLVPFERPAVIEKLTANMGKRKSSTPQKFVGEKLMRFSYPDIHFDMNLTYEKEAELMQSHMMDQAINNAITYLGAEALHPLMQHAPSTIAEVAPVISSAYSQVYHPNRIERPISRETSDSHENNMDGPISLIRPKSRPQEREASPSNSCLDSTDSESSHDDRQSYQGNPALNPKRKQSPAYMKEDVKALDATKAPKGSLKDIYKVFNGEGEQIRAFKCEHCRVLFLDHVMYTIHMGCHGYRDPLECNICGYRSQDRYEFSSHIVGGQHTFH

Substance: 4x IkBS2 reporter
- activity (fold activation) [1]: 5
- activity (fold activation) [2]: 7.8
